Reference: paper PMC7721647, “The Human RNA Helicase DDX21 Presents a Dimerization Interface Necessary for Helicase Activity” (iScience, 2020)

What was measured:
Assay in all cases: fluorescence polarization; FP: 50 mM Tris pH 7.5, 50 mM KCl, 5 mM MgCl2, no ATP; Hill-slope fit; temperature not given in the material
[1] = biological target: T1, DDX21ΔNC (human, UniProt Q9NR30 186-710); conditions: protein: recombinant, chain copies: 2
T1 sequence: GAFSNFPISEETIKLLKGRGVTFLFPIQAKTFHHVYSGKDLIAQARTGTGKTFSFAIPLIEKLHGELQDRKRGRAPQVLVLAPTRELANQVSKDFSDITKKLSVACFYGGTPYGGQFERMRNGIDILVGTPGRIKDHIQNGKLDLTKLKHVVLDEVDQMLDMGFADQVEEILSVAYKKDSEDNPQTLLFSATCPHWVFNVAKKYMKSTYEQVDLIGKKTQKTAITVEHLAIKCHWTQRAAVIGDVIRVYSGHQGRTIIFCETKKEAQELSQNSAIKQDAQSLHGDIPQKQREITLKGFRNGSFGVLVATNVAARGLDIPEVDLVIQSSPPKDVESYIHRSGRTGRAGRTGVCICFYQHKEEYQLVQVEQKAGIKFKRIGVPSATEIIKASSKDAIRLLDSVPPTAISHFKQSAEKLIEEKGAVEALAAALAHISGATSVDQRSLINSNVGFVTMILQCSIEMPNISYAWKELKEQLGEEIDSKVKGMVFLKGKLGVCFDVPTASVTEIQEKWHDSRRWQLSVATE

[2] = biological target: T2, DDX21Core-DD (human, UniProt Q9NR30 186-620); conditions: protein: recombinant, tags: C-terminal His6, uncleavable, chain copies: 2
T2 sequence: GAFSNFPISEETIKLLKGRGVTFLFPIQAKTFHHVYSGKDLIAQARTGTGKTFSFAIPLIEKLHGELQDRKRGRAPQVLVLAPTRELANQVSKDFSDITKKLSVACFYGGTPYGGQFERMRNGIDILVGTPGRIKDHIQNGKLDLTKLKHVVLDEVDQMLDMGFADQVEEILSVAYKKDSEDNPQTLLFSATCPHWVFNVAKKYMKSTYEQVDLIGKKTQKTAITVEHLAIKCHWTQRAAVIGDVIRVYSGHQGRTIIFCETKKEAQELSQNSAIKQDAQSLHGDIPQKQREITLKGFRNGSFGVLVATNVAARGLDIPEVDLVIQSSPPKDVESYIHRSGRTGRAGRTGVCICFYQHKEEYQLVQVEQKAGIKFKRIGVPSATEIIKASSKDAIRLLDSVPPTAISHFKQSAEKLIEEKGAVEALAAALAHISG

[3] = biological target: T3, DDX21Fl monomer (human, UniProt Q9NR30 1-783, L611R;A612R;A613R;A614R;L615R;A616R); conditions: protein: recombinant
T3 sequence: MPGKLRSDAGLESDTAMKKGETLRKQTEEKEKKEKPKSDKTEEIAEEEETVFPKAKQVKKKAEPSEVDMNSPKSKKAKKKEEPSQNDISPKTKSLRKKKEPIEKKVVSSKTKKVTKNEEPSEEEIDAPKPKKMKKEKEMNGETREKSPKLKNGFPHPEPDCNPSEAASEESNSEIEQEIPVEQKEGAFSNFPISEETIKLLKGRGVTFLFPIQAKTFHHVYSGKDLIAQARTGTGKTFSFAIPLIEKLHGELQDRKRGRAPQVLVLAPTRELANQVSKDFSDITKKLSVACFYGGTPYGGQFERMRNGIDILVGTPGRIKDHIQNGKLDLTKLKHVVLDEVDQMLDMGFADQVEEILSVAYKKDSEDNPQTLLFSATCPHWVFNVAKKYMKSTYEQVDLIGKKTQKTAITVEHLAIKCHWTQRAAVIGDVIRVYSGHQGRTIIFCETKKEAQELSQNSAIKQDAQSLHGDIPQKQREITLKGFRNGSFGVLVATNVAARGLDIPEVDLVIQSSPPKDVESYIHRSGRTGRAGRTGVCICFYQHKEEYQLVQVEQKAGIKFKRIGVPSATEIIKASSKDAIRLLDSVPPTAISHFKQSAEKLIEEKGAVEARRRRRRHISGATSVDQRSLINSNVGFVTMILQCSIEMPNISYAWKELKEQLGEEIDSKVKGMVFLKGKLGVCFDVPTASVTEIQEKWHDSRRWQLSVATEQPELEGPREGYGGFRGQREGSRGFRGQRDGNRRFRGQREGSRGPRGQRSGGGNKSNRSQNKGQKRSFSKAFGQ

[4] = biological target: T4, DDX21ΔN monomer (human, UniProt Q9NR30 186-783, L611R;A612R;A613R;A614R;L615R;A616R); conditions: protein: recombinant
T4 sequence: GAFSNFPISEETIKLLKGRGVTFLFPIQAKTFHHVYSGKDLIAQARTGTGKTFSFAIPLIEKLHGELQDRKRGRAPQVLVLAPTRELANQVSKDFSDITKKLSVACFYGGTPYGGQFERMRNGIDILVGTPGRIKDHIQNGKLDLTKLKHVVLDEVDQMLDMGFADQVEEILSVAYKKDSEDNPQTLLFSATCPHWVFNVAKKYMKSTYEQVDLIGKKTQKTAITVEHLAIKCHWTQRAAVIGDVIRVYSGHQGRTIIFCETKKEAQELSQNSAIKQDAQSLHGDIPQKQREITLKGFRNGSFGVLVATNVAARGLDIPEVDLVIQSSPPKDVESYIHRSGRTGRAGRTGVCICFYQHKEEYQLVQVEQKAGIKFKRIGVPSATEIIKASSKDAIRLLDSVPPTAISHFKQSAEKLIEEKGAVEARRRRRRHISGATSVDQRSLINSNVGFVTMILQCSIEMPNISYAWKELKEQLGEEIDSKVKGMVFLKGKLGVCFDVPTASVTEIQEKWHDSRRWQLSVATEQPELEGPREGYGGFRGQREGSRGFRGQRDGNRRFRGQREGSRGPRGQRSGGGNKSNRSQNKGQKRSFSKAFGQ

[5] = label: 5'-FAM on 15-mer, 3' overhang 15 nt

B1: dsRNA 15/30mer 3' overhang (dsRNA)
RNA 1: GUUUCGGAUCGACGC
RNA 2: GCGUCGAUCCGAAACUAUACUUAAUUUUAA
For B1, the Kd [1, 5] was 217 ± 10.4 nM, the Kd [2, 5] was 143 ± 6.1 nM and the Kd [3, 5] was 13.9 ± 2.5 nM. It also gave a Kd [4, 5] of 122 ± 19.3 nM.

Work on GUUUCGGAUCGACGC (ssRNA) [15-mer ssRNA] yielded a Kd ([1]; label: 5'-FAM, single strand) of 688 ± 52.7 nM, a Kd ([2]; label: 5'-FAM, single strand) of 330 ± 19.1 nM and a Kd ([3]; label: 5'-FAM, single strand) of 29.9 ± 2.7 nM. For the same binder, the Kd ([4]; label: 5'-FAM, single strand) was 24.9 ± 1.7 nM.
